Test results taken from the DeepSol protein solubility set.

Assay: soluble on expression in E. coli; label from the status in PepcDB or PDB records

Sequence	soluble on expression in E. coli
SVSTTFRRIVSPCWRPFGIGEDSSPGSDDTNGRLDGLLWYKDSGNHITGEFSMAVVQANNLLEDHSQLESGPISLHESGPEATFVGVYDGHGGPEAARFVNDRLFYNIKRYTSEQRGMSPDVITRGFVATEEEFLGLVQEQWKTKPQIASVGACCLVGIVCNGLLYVANAGDSRVVLGKVANPFKELKAVQLSTEHNASIESVREELRLLHPDDPNIVVLKHKVWRVKGIIQVSRSIGDAYLKRAEFNQEPLLPKFRVPERFEKPIMRAEPTITVHKIHPEDQFLIFASDGLWEHLSNQEAVDIVNSCPRNGVARKLVKAALQEAAKKREMRYSDLEKIERGIRRHFHDDITVIVVFLHATNFATRTPISVKGGGLLSAHNPVL	soluble
VNKSELIEAIAQEADISKAAAQKALDATTNAVTTALKQGDTVTLVGFGTFYVGERAERQGRNPKTGEPLTIAAAKTPKFRAGKALKDAL	soluble
MDGNQYEAIFLNYFRGIFPNADNLNVKCVKRMSEQQMKTTISRHGMRCTVLNGKDKISSYTVKKIVETPGKREYYGVRDIFAFKLLDMMGVGPKVHFVSNGEVGDDVGLFIVTEDD	not soluble
GMQPETSAQYQHRFSQAIRGGEAADGLPQDRLNVYIRLIRNNIHSFIDRCYTETRQYFDSKEWSRLKEGFVRDARAQTPYFQEIPGEFLQYCQSLPLSDGILALMDFEYTQLLAEVAQIPDIPDIHYSNDSKYTPSPAAFIRQYRYDVTHDLQEAETALLIWRNAEDDVMYQTLDGFDMMLLEIMGSSALSFDTLAQTLVEFMPKADNWKNILLGKWSGWIEQRIIIPSLSAISENMEGNSPSQNHLSA	soluble
MGSDKIHHHHHHLIKSIFNKLFNLRENNPIERPKSFSATDLGKPLAISPKNITQQESISANVVYVDLSALFYSLLFPARVNDAGGIANNLERRVMAEIEHALASPQVIAEKVLKLPSKVLELDRKLADPQFDIKALLALIERDPLLSVEVLKLCNSPAFKRSDRDITNLQQALVQLGREQLRKFVTTCLVREMLDIKPIYFRRFGAEIWRHSMQVAFLASELSDEDQDTAFLLGLLHDVGKLAIFKMLLDAFVQAEPGEQPNSGLFRQVMTTKSLTLSSLLAKHWQLPNTFETELDRLASVNSRPQAGLAAVVWRANVISEISMLHQAGQLSPEILANLLQQVNLEQTQFDGLHQKLLQF	not soluble
FNDWYVSARANFTYNRNKKLYDDKPTPIWPYQSEAGFAYRQQRGLIALGLFESEEDIANSPKQNFGNVRPGDIKYKDINGDNVIDAYDKVAIGYTDVPEINYGFGISLGWKGFDASLFMQGVGNVTRIIGGDALYGASDNIERLGQIYADVAEKRWTTSNPNPNATYPRLSMSKVENNLQPSTYWQRNMSFLRLKNVEIGYTLPKHIYKRLGMSSIRVYAQGVNLLTFSKFKLWDPELDSNYGNIYPQMRTITLGLNLNF	not soluble
MAHHHHHHMVWFSAPDNSEFLGDPLPRKARQPKVHLATEVSVEASVPWEDVSSWECGSQTSRNSSRSSTSDNAANGHVANINKFHDRMELIRRLNKRRRNNSTCRESGRTEQWTCQPLYVGVSTFPEMKEMSPKSVGGENVPFWNGAVVHDSPLMTDRSGSEVDKKPLKTRKCAWNLTYVRKNDWPEAHQMHEGDAII	not soluble
MSETTQGPTHFRLMSKLKAIGPYLREPQSQEGRYYFDCLSVCVDDKKSPEKREFWGWWMDLESIEGGFTAKYHIGKYNKEGKWVSEALPQKVVEEVYFTQSTFHQKLIDTLAEHFKLEVEYHTESFDFA	not soluble
MSLTTTPANVLASVDLGSNSFRLQICENNNGQLKVIDSFKQMVRFAAGLDEQKNLSAASQEQALDCLAKFGERLRGFRPEQVRAVATNTFRVAKNIADFLPKAEAALGFPIEIIAGREEARLIYTGVIHTLPPGGGKMLVIDIGGGSTEFVIGSTLNPDITESLPLGCVTYSLRFFQNKITAKDFQSAISAARNEIQRISKNMRREGWDFAVGTSGSAKSIRDVLAAEMPQEADITYKGMRALAERIIEAGSVKKAKFENLKPERIEVFAGGLAVMMAAFEEMKLDRMTVTEAALRDGVFYDLIGRGLNEDMRGQTVAEFQHRYHVSLNQAKRTAETAQTFMDSLCHAKNVTVQELALWQQYLGRAAALHEIGLDIAHTGYHKHSAYILENADMPGFSRKEQTILAQLVIGHRGDMKKMSGIIGTNEMLWYAVLSLRLAALFCRSRQDLSFPKNMQLRTDTESCGFILRIDREWLERHPLIADALEYESVQWQKINMPFKVEAVEGHHHHHH	soluble
MMTRESIDKRAGRRGPNLNIVLTCPECKVYPPKIVERFSEGDVVCALCGLVLSDKLVDTRSEWRTFSNDDHNGDDPSRVGEASNPLLDGNNLSTRIGKGETTDMRFTKELNKAQGKNVMDKKDNEVQAAFAKITMLCDAAELPKIVKDCAKEAYKLCHDEKTLKGKSMESIMAASILIGCRRAEVARTFKEIQSLIHVKTKEFGKTLNIMKNILRGKSEDGFLKIDTDNMSGAQNLTYIPRFCSHLGLPMQVTTSAEYTAKKCKEIKEIAGKSPITIAVVSIYLNILLFQIPITAAKVGQTLQVTEGTIKSGYKILYEHRDKLVDPQLIANGVVSLDNLPGVEKK	soluble
MAHHHHHHMCYDCATSSSLVTTILNGMHVFNLDERFYGANLAAGLSASNVESYPYHTIGEEPLMSSCFFNAGQLFAVGSSCGSVTVVSRRSRALTSCYATPDSFPIRSLSEIPAQPNCLLTCTEQGAAIVDVERSQLRMSLANPAAGRAVAAVPLQLHTFVVANYDGKVLLYDTRYRSSPSSVLSLPDQITCLAVSRDTPEVCVGTVGGRVFTLRCAEGPQREQAFGMSNRRSPVRCVAMDNGRIAAGDLAGRLALIDTADVPDPTVYWSAETLLRLPRPSGRARHA	not soluble
MDKSKINFNYQSRAVYSANPQTSRGRLFHETMNTLRSPFQRDRDRIIHSNAFRRLKHKTQVFIADESDHYRTRLTHSIEVSQIARTLARALYLDEDLAESIALVHDFGHTPFGHAGEDALNEAMAPYGGFDHNAQALRIVTKLEQRYANFDGLNLTWETLEGLVKHNGPLLGPYAKNKDIPIDILQYNAKQDLQLNCFAGLEAQCAAIADDIAYNAHDVDDGLRSQFLTLDQFEQVSLTAALLNDIKKEHPQLDQTRRGYTLVRRQIKTMVEDVIKQSQENLARVKPKSISDVHQAEQTIVTFSPTMAVYERELKDFLFKNLYYHDQVLNRRNAAKRIVQKLFECYYENPDVMPENWHNKTAHLTNQELARLIADFLSGMTDHYALREYQHLFDCTDNFI	not soluble
ADQVDPQLKFAMQRDLGIFPTQLPQYLQTEKLARTQAAAIEREFGAQFAGSWIERNEDGSFKLVAATSGARKSSTLGGVEVRNVRYSLKQLQSAMEQLDAGANARVKGVSKPLDGVQSWYVDPRSNAVVVKVDDGATDAGVDFVALSGADSAQVRIESSPGKLQTT	soluble
MMKPNIDFKRLKAYVQANGSYSLVVKGDSIEVHFSPNFPEAIPHLPDNLPVEHIMYGKVENGIVYFYRFETISSFGTTYNDLTDDDPIMEWLKYI	not soluble
MSLADISVIQSLPLSGSQAVTGRALNAGARLYFDWLNLNGGINGETIRLVARDDEQKIEQTVRNVRDMARVDNPVALLTVVGTANVEALMREGVLAEARLPLVGPATGASSMTTDPLVFPIKASYQQEIDKMITALVTIGVTRIGVLYQEDALGKEAITGVERTLKAHALAITAMASYPRNTANVGPAVDKLLAADVQAIFLGATAEPAAQFVRQYRARGGEAQLLGLSSIDPGILQKVAGLDAVRGYSLALVMPNPGKSVNPVIREFNRARAAVGAKDVDLSFRAVEGFVAAKVLAEAIRRAGPKPTREQVRHALTELRDYDVGGGFTVDFTDRSRPGSHYIELGVVGPNGLVIQEGHHHHHH	soluble
MKEAYAQELIDYYNQSTNDVLKRTASISENEKPRVLFLVYDQRKNSYWTPGGEFYQNNLITMAGGKTVSSDLPTGKAQINVEQAASWNPDVIITSAHTMEYPSTKVKEDVLTDEGWKEINAVKSGNVYAMPFDGESWDTLGSKYVLGLYWTAKTLHPDMYLEHHHHHH	soluble
MEADVEQQALTLPDLAEQFAPPDIAPPLLIKLVEAIEKKGLECSTLYRTQSSSNLAELRQLLDCDTPSVDLEMIDVHVLADAFKRYLLDLPNPVIPAAVYSEMISLAPEVQSSEEYIQLLKKLIRSPSIPHQYWLTLQYLLKHFFKLSQTSSKNLLNARVLSEIFSPMLFRFSAASSDNTENLIKVIEILISTEWNERQPAPALPPKPPKPTTVAN	soluble
MSLKKLRIGVVGLGGIAQKAWLPVLAAASDWTLQGAWSPTRAKALPICESWRIPYADSLSSLAASCDAVFVHSSTASHFDVVSTLLNAGVHVCVDKPLAENLRDAERLVELAARKKLTLMVGFNRRFAPLYGELKTQLATAASLRMDKHRSNSVGPHDLYFTLLDDYLHVVDTALWLSGGKASLDGGTLLTNDAGEMLFAEHHFSAGPLQITTCMHRRAGSQRETVQAVTDGALIDITDMREWREERGQGVVHKPIPGWQSTLEQRGFVGCARHFIECVQNQTVPQTAGEQAVLAQRIVDKIWRDAMSEEGGSHHHHHH	soluble
MSLSAFLPSLDTPVALLDMPRMQRNIQRMQQRMNELGVRLRPHVKTSKSLPVIQAQMAAGARGVTVSTLKEAEHCFAEGISDVFYAVAIAPGKLDQALKLRRIGCRLSILTDSVVAAQAIVAFGQQHDEQFQVWIEIDCDGHRSGLTVEDNALIEVARTLVEGGMQLRGVMTHAGSSYDLDTPEALQALAEQERLLCVSAAERIRQAGLPCPEVSIGSTPTALSAQGLAGVTEVRAGVYVFFDLVMHNIGVCGADEGHHHHHH	not soluble
MTGRESNRIKDAEKKRVLDSTARQRRARKALEALEQDNYHDDPHADLVMSKKLPKFQDSLKTGKEKKGKRKGAEYFLVKYRKNFQQLLEEDKDKQPNYESAAAPAPQKPLRHFCAVCGNFSLYSCTACGTRYCCVRCLQTHQDTRCLKWTALEHHHHHH	not soluble
MSLEDRIDQVEQAITKSRRYQTVAPATVRRLARAALVAARGDVPDAVKRTKRGLHEIYGAFLPPSPPNYAALLRQLDSAVDAGDDEAVRAALRRAMSVHVSTRERLPHLAEFYQEIFRHVPQPNTLRDLACGLNPLAAPWMGLSDQTVYVASDIDARLIGFVDAALTRLGVAHRTSVVDLLEDRLDEPTDVTLLLKTLPCLETQRRGSGWEVIDIVNSPIIVVTFPTKSLGQRSKGMFQNYSQSFESQARERSCRIQRLEIGNELIYVIQKEGHHHHHH	soluble
MAHHHHHHMFAFLNVAFMAAIRRKLKELKPPARRQSHRCAPEVYSQEGPTRHYFLPSVERIDKKTCISHRLLYIPEVENFPLVDGFFFVKSNPMTLVGLRMTTAGEHHTAASTVRQFTECLAAYFNGWEELSREMSWEMIYVQHADSTPMNDWQRCDVDNSNNLTEEGREIAAFWNEKVRQYQVSI	not soluble
MAVGKNKGLSKGGKKGGKKKVVDPFSRKDWYDVKAPNMFQTRQIGKTLVNRTQGQRIASDYLKGRVFEVSLADLQKDIDPERSFRKFRLIAEDVQDRNVLCNFHGMDLTTDKYRSMVKKWQTLIEAIVEAKTVDGYLLRVFCIGFTAKDQQSQRKTCYAQQSQVRKIRARMTDIITNEVSGADLKQLVNKLALDSIAKDIEKSCQRIYPLHDVYIRKVKVLKKPRFDVSKLLELHGDGGGKSVEAVVSSEGAVIDRPEGYEPPVQEAVLEHHHHHH	soluble
MSLQMKNYQQTLKRMSDRSSGFLGVGVHKQKLGIGAIAIVVTDKDGEIVDCEMMSGVTVFSRFKPLTDFVGMSLNECKVLLQNESVDIALHGALKKIEEQMNRKENVTTEGHHHHHH	not soluble
